Key:
[1] = biological target: T1, IL-13RA2 endogenously expressed on U251 cells (human) (UniProt Q14627); experiment: flow cytometry on U251 cells, scFv_Fc form, 5-fold dilutions from 2,000 nM, FITC anti-human IgG
T1 sequence (looked up): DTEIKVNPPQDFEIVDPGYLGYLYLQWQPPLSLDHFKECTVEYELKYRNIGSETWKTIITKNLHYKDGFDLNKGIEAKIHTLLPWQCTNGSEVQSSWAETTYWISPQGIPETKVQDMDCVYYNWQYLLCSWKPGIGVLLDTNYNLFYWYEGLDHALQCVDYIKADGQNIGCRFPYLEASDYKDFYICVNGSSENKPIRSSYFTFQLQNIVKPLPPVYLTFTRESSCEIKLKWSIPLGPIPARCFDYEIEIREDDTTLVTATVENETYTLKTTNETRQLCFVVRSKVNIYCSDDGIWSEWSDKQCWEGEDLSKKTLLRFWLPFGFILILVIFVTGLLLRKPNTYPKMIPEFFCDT

[2] = biological target: IL-13RA2 huFc (human); experiment: SPR (Biacore T200), ligand IL13Ra2 on the chip, scFv_Fc as analyte at 6.25 to 100 nM, 1:1 binding fit, flow 30 ul/min
[3] = biological target: IL-13RA2 huFc (human); experiment: SPR (Biacore T200), scFv_Fc forms on IL-13RA2 huFc, summary table

EC50 [1]: 0.33 nM
Kd [2]: 0.348 nM
koff [2]: 0.000196 s⁻¹
kon [2]: 563000 M⁻¹ s⁻¹
Kd [3]: 0.348 nM
koff [3]: 0.000196 s⁻¹
kon [3]: 563000 M⁻¹ s⁻¹
B1: 2D3 (scFv_Fc form) (Fc fusion, not shown: a dimerising Fc or GST)
scFv: EVQLLESGGGLVQPGGSLRLSCAASGFTFRRPAMTWVRQAPGKGLEWVSAITGSGGSTYYADSVKGRFTISRDNSKNTLYLQMNSLRAEDTAVYYCVKVRYGWGAGAFDYWGQGTLVTVSSGGGGSGGGGSGGGGSDIQMTQSPSTLSASVGDRVTITCRASQSISSWLAWYQQKPGKAPKLLIYDASSLESGVPSRFSGSGSGTEFTLTISSLQPDDFATYYCQQYDTYPPITFGQGTKVEIK

— US20190359723A1
